The target of experiment [1] is T1, human CD3 on T cells (Jurkat cells; human peripheral blood CD4+ and CD8+ T-cells) (human, UniProt P07766 23-207).
T1 construct: whole, on cells; also called CD4T; CD4 + T
Nature of the experiment: flow cytometry on Jurkat cells. The procedure:
Jurkat cells in logarithmic growth phase were blocked with 3% BSA for 30 min, added to 96-well U-plate at 5×10^4 cells per well, centrifuged to discard the supernatant, and added with 50 μL of gradient diluted antibody (antibody concentration:from 30 μg/mL, with 3-fold dilution for 5 gradients) per well, and incubated at 4° C. for 1 hour. After washing off the primary antibody, a 1:300 dilution of Alexa Fluro647 labeled goat anti-human IgG Fc (Jackson ImmunoResearch, 109-606-170) was added to the secondary antibody, incubated for 45 min at 4° C., and, after washing, resuspended in 50 μL of PBS per well for FACS (iQue, intellicyt) detection.

For experiment [2], the target named is T2, Cynomolgus monkey CD3εγ-Fc heterodimer (cynomolgus monkey).
T2 construct: also called cynomolgus monkey CD3εγ protein
T2 chain 1: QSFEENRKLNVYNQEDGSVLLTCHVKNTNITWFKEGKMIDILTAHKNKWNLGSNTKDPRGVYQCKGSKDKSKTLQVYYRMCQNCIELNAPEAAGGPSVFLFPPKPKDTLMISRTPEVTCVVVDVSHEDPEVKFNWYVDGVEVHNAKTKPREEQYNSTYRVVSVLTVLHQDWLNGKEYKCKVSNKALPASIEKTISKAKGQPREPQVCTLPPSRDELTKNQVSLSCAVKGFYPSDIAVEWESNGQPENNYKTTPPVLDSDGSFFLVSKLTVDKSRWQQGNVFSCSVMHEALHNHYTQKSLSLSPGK
T2 chain 2: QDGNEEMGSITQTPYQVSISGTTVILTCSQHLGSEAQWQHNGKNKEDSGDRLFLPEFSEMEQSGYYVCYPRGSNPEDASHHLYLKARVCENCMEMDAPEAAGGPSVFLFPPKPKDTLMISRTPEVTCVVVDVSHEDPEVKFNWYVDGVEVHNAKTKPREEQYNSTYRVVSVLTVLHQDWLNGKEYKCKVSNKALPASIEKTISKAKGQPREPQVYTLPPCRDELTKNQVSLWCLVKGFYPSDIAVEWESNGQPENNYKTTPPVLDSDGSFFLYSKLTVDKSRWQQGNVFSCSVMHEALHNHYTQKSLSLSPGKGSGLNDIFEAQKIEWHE
Nature of the experiment: ELISA, coated cynomolgus monkey CD3εγ protein. As for the experimental part: Human CD3εγ protein and cynomolgus monkey CD3εγ protein were coated separately overnight at 4° C. After blocking with 2% skim milk, different dilutions of CD3 antibody were added to each well and incubated for 1 hour. After the secondary antibody was developed by adding HPR-labeled goat anti-human IgG Fc and TMB solution, the reaction was stopped with concentrated sulfuric acid, and the absorbance was read at 450 nm.

For experiment [3], the target named is T3, human CD3εγ-Fc heterodimer (human).
T3 construct: also called human CD3εγ recombinant protein; human CD3εγ protein
T3 chain 1: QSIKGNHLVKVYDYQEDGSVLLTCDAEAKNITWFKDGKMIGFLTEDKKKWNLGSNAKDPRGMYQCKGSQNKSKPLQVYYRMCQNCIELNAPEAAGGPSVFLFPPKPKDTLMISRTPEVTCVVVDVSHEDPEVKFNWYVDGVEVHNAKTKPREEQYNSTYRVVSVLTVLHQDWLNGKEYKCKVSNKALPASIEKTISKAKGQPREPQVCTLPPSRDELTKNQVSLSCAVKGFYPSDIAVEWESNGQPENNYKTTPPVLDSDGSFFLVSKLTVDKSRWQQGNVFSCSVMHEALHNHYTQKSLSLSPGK
T3 chain 2: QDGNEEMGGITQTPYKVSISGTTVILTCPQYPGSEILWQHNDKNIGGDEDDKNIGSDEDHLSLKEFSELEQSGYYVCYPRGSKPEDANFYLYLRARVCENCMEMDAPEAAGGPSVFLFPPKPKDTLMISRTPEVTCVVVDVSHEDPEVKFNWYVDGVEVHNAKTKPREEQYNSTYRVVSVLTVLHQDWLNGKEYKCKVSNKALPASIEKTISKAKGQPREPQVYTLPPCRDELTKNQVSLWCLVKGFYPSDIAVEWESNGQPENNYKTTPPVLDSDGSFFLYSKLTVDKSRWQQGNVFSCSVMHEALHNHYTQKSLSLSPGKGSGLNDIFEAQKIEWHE
Nature of the experiment: ELISA, coated human CD3εγ recombinant protein. The procedure: Human CD3εγ recombinant protein was coated overnight at 4° C. After blocking with 2% skim milk, different dilutions of CD3 antibody were added to each well and incubated for 1 hour. After the secondary antibody was developed by adding HPR-labeled goat anti-human IgG Fc and TMB solution, the reaction was stopped with concentrated sulfuric acid and the absorbance was read at 450 nm.

Experiment [4] has as its target T4, human CD20 on cells (CHO-human CD20 stably transfected cells; SU-DHL-4, Raji, NALM-6 tumor cells) (human, UniProt P11836 1-297).
T4 construct: whole, on cells; also called Human CD20-CHO; cellular CD20 receptor
T4 sequence (looked up): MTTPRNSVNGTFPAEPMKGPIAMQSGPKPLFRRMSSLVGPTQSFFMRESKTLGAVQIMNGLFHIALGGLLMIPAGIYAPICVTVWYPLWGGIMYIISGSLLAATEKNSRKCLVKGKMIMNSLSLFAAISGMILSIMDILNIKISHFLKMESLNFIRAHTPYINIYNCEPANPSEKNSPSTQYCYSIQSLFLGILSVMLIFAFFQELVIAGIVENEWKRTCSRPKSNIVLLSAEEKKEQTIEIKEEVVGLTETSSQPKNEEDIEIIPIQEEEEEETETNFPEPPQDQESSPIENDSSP
Nature of the experiment: flow cytometry on CHO-human CD20 stably transfected cells. The procedure: (§1) CHO-human CD20 and CHO-cynomolgus monkey CD20 stably transfected cells prepared in Example 1 in logarithmic growth phase were adjusted to 5×10⁵ cells/ml with 4% calf serum (Hyclone, SH30626.06), 100 μl/well cell suspension was added to 96-well U-plate, 300 g thereof was centrifuged for 5 min, the supernatant was discarded, and 100 μL of gradient diluted antibody (with starting concentration of 1800 nM, 3-fold dilution, 10 gradients) was added to each well and incubated at 4° C. for 60 min. 50 μL/well Alexa Fluro647 labeled goat anti-human IgG Fc (1:300 dilution) was added to the secondary antibody and incubated on ice for 20 min. After washing once, 50 μL/well propidium iodide (PI) solution (1:300) was added, incubated for 5 min, and performed with detection by flow cytometry.

In experiment [5] the target is T5, cynomolgus monkey CD20 on CHO stably transfected cells (cynomolgus monkey, UniProt M4ZHZ6 1-297).
T5 construct: whole, on cells; also called Cynomolgus monkey CD20-CHO; CHO-cynomolgus monkey CD20
T5 sequence: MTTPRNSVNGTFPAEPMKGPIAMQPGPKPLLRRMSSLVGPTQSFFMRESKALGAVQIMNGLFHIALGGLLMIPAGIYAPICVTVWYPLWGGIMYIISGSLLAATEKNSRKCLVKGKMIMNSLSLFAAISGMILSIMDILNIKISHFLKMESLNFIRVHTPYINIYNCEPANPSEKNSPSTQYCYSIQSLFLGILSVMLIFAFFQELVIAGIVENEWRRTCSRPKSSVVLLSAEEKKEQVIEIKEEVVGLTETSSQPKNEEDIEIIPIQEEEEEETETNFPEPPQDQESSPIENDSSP
Nature of the experiment: flow cytometry on CHO-cynomolgus monkey CD20 stably transfected cells. The procedure: as §1

B1: aCD3-hVH9/VL2 (antibody, human IgG4, V domains shown)
VH: EVQLVESGGGLVQPGGSLRLSCAASGFTFNTYAMNWVRKAPGKGLEWVGRIRSKYNNYATYYADSVKDRFTISRDDSKNSLYLQMNSLKTEDTAVYYCVRHGNFGNSYVSWFAYWGQGTLVTVSS
VL: QAVVTQEPSLTVSPGGTVTLTCRSSTGAVTTSNYANWVQEKPGQAPRGLIGGTNKRAPWTPARFSGSLLGGKAALTLSGAQPEDEAEYYCALWYSNLWVFGGGTKLTVL
notes: also called humanized anti-CD3 antibody hVH9/VL2
In the case of B1, the “affinity (FACS)” value in experiment [1] is 25 nM. Moreover, the binding result in experiment [2] is recorded as “binds”. For the same molecule, in experiment [3], the “affinity (ELISA)” value is 0.44 nM.

B2: aCD3-hVH9/VL5 (antibody, human IgG4, V domains shown)
VH: EVQLVESGGGLVQPGGSLRLSCAASGFTFNTYAMNWVRKAPGKGLEWVGRIRSKYNNYATYYADSVKDRFTISRDDSKNSLYLQMNSLKTEDTAVYYCVRHGNFGNSYVSWFAYWGQGTLVTVSS
VL: QAVVTQEPSLTVSPGGTVTLTCRSSTGAVTTSNYANWVQEKPGQAPRGLIGGTNKRAPWTPARFSGSLLGGKAALTITGAQAEDEAEYYCVLWYSNLWVFGGGTKLTVL
notes: also called humanized anti-CD3 antibody hVH9/VL5
As for B2, the “affinity (FACS)” value in experiment [1] came to 20 nM. The binding result in experiment [2] is “binds”. Further, the “affinity (ELISA)” value in experiment [3] is 0.42 nM.

B3: CD20 × CD3 κλ001 (bispecific antibody, human IgG4 S228P, kappa, lambda)
light 1: not shown
heavy 1: EVQLLESGGGVVQPGGSLRLSCAASGFTFNDYAMHWVRQAPGKGLEWVSTISWNSGSIGYADSVKGRFTISRDNSKNTLYLQMNSLRAEDTAVYYCAKDIQYGNYYYGMDYWGQGTLVTVSSASTKGPSVFPLAPCSRSTSESTAALGCLVKDYFPEPVTVSWNSGALTSGVHTFPAVLQSSGLYSLSSVVTVPSSSLGTKTYTCNVDHKPSNTKVDKRVESKYGPPCPPCPAPEFEGGPSVFLFPPKPKDTLMISRTPEVTCVVVDVSQEDPEVQFNWYVDGVEVHNAKTKPREEQFNSTYRVVSVLTVLHQDWLNGKEYKCKVSNKGLASSIEKTISKAKGQPREPQVCTLPPSQEEMTKNQVSLSCAVKGFYPSDIAVEWESNGQPENNYKTTPPVLDSDGSFFLVSKLTVDKSRWQEGNVFSCSVMHEALHNHYTQKSLSLSLGK
light 2: QAVVTQEPSLTVSPGGTVTLTCRSSTGAVTTSNYANWVQQKPGQAPRGLIGGTNKRAPWTPARFSGSLLGGKAALTITGAQAEDEAEYYCVLWYSNLWVFGGGTKLTVLGQPKAAPSVTLFPPSSEELQANKATLVCLISDFYPGAVTVAWKADSSPVKAGVETTTPSKQSNNKYAASSYLSLTPEQWKSHRSYSCQVTHEGSTVEKTVAPTECS
heavy 2: EVQLVESGGGLVQPGGSLRLSCAASGFTFNTYAMNWVRQAPGKGLEWVGRIRSKYNNYATYYADSVKDRFTISRDDSKNSLYLQMNSLKTEDTAVYYCVRHGNFGNSYVSWFAYWGQGTLVTVSSASTKGPSVFPLAPCSRSTSESTAALGCLVKDYFPEPVTVSWNSGALTSGVHTFPAVLQSSGLYSLSSVVTVPSSSLGTKTYTCNVDHKPSNTKVDKRVESKYGPPCPPCPAPEFEGGPSVFLFPPKPKDTLMISRTPEVTCVVVDVSQEDPEVQFNWYVDGVEVHNAKTKPREEQFNSTYRVVSVLTVLHQDWLNGKEYKCKVSNKGLASSIEKTISKAKGQPREPQVYTLPPCQEEMTKNQVSLWCLVKGFYPSDIAVEWESNGQPENNYKTTPPVLDSDGSFFLYSKLTVDKSRWQEGNVFSCSVMHEALHNHYTQKSLSLSLGK
notes: also called anti-CD20×CD3 κλ bispecific antibody
Consider B3, for which the results for the half-maximal effective concentration (EC50) in experiment [4] and in experiment [5] were 10 nM and 12 nM, respectively.

B4: CD20 × CD3 κλ005 (bispecific antibody, human IgG4 S228P, kappa, lambda)
light 1: not shown
heavy 1: EVQLLESGGGVVQPGGSLRLSCAASGFTFNDYAMHWVRQAPGKGLEWVSTISWNSGSIGYADSVKGRFTISRDNSKNTLYLQMNSLRAEDTAVYYCAKDIQYGNYYYGMDYWGQGTLVTVSSASTKGPSVFPLAPCSRSTSESTAALGCLVKDYFPEPVTVSWNSGALTSGVHTFPAVLQSSGLYSLSSVVTVPSSSLGTKTYTCNVDHKPSNTKVDKRVESKYGPPCPPCPAPEFEGGPSVFLFPPKPKDTLMISRTPEVTCVVVDVSQEDPEVQFNWYVDGVEVHNAKTKPREEQFNSTYRVVSVLTVLHQDWLNGKEYKCKVSNKGLASSIEKTISKAKGQPREPQVCTLPPSQEEMTKNQVSLSCAVKGFYPSDIAVEWESNGQPENNYKTTPPVLDSDGSFFLVSKLTVDKSRWQEGNVFSCSVMHEALHNHYTQKSLSLSLGK
light 2: QAVVTQEPSLTVSPGGTVTLTCRSSTGAVTTSNYANWVQEKPGQAPRGLIGGTNKRAPWTPARFSGSLLGGKAALTITGAQAEDEAEYYCVLWYSNLWVFGGGTKLTVLGQPKAAPSVTLFPPSSEELQANKATLVCLISDFYPGAVTVAWKADSSPVKAGVETTTPSKQSNNKYAASSYLSLTPEQWKSHRSYSCQVTHEGSTVEKTVAPTECS
heavy 2: EVQLVESGGGLVQPGGSLRLSCAASGFTFNTYAMNWVRKAPGKGLEWVGRIRSKYNNYATYYADSVKDRFTISRDDSKNSLYLQMNSLKTEDTAVYYCVRHGNFGNSYVSWFAYWGQGTLVTVSSASTKGPSVFPLAPCSRSTSESTAALGCLVKDYFPEPVTVSWNSGALTSGVHTFPAVLQSSGLYSLSSVVTVPSSSLGTKTYTCNVDHKPSNTKVDKRVESKYGPPCPPCPAPEFEGGPSVFLFPPKPKDTLMISRTPEVTCVVVDVSQEDPEVQFNWYVDGVEVHNAKTKPREEQFNSTYRVVSVLTVLHQDWLNGKEYKCKVSNKGLASSIEKTISKAKGQPREPQVYTLPPCQEEMTKNQVSLWCLVKGFYPSDIAVEWESNGQPENNYKTTPPVLDSDGSFFLYSKLTVDKSRWQEGNVFSCSVMHEALHNHYTQKSLSLSLGK
notes: Human IgG4 knob-into-hole Fc; charge variants only in the CD3 arm; also called anti-CD20×CD3 κλ bispecific antibody
In the case of B4, the EC50 in experiment [4] came out at 9 nM; in experiment [5], 14 nM.

Source of the values: US20250346685A1 (published 2025).
